In the supplement of paper PMC10567573 one finds protein stability index data, which are given here for 94 variants.

Sequences and labels used below:
B1: CIB1 (parent)
chain: DLSRLVNCLTGEGEDTRLSASEMK
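Also: lentivirally expressed fusions sorted by FACS into six bins by GFP to DsRed ratio, PSI derived from sequencing read proportions per bin multiplied by bin number.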

The variants in this series derive from B1. In words: protein stability index of a GFP-peptide fusion (GPS, HEK-293T) (PSI 1-6); higher = more stable. The following applies: c terminus: a fixed tail appended.
As for DLTRLVNCLTGEGEDTRLSASEMK [S3T], the protein stability index was 2.32. Next, DLFRLVNCLTGEGEDTRLSASEMK [S3F]: 2.9; DLKRLVNCLTGEGEDTRLSASEMK [S3K]: 3.27; DLRRLVNCLTGEGEDTRLSASEMK [S3R]: 2.43.

In the case of DLERLVNCLTGEGEDTRLSASEMK [S3E], the protein stability index was determined as 2.78. The value for DLSRLNNCLTGEGEDTRLSASEMK [V6N] was 4.04. Next, DLSRLWNCLTGEGEDTRLSASEMK [V6W]: 2.64.

Turning to DLSRLPNCLTGEGEDTRLSASEMK [V6P], the protein stability index turned out to be 4.84. The value for DLSRLTNCLTGEGEDTRLSASEMK [V6T] was 3.08; that for DLSRLSNCLTGEGEDTRLSASEMK [V6S] was 2.6.

Regarding DLSRLCNCLTGEGEDTRLSASEMK [V6C], the protein stability index was 3.96. Next, DLSRLLNCLTGEGEDTRLSASEMK [V6L]: 3.68. Regarding DLSRLGNCLTGEGEDTRLSASEMK [V6G], the protein stability index stood at 2.36. Consider DLSRLENCLTGEGEDTRLSASEMK [V6E], for which the protein stability index stood at 2.91. Regarding DLSRLQNCLTGEGEDTRLSASEMK [V6Q], the protein stability index is 2.64. Next, DLSRLDNCLTGEGEDTRLSASEMK [V6D]: 4.1; DLSRLRNCLTGEGEDTRLSASEMK [V6R]: 3.94. Take DLSRLINCLTGEGEDTRLSASEMK [V6I]: the protein stability index is 3.25. The value for DLSRLMNCLTGEGEDTRLSASEMK [V6M] was 3.61; that for DLSRGVNCLTGEGEDTRLSASEMK [L5G] was 5; that for DLSRRVNCLTGEGEDTRLSASEMK [L5R] was 2.87.

In the case of DLSRVVNCLTGEGEDTRLSASEMK [L5V], the protein stability index amounted to 4. DLSRDVNCLTGEGEDTRLSASEMK [L5D]: the protein stability index turned out to be 4.39. Next, DLSRYVNCLTGEGEDTRLSASEMK [L5Y]: 2.27; DLSRPVNCLTGEGEDTRLSASEMK [L5P]: 5.06; DLSRQVNCLTGEGEDTRLSASEMK [L5Q]: 4.54. Next, DLSRHVNCLTGEGEDTRLSASEMK [L5H]: 3.23; DLSRKVNCLTGEGEDTRLSASEMK [L5K]: 4.53; DLSRCVNCLTGEGEDTRLSASEMK [L5C]: 3.35. Next, DLSRFVNCLTGEGEDTRLSASEMK [L5F]: 2.49; DLSRAVNCLTGEGEDTRLSASEMK [L5A]: 3.99.

DLSRTVNCLTGEGEDTRLSASEMK [L5T]: the protein stability index was 3.61. The value for DWSRLVNCLTGEGEDTRLSASEMK [L2W] was 2.89; that for DCSRLVNCLTGEGEDTRLSASEMK [L2C] was 3.87; that for DASRLVNCLTGEGEDTRLSASEMK [L2A] was 4.39.

With DYSRLVNCLTGEGEDTRLSASEMK [L2Y], the protein stability index was found to be 3.82. Consider DMSRLVNCLTGEGEDTRLSASEMK [L2M], for which the protein stability index was determined as 5.13.

Take DKSRLVNCLTGEGEDTRLSASEMK [L2K]: the protein stability index is 4.56. For DGSRLVNCLTGEGEDTRLSASEMK [L2G], the protein stability index was 5.22. Next, DSSRLVNCLTGEGEDTRLSASEMK [L2S]: 5; DNSRLVNCLTGEGEDTRLSASEMK [L2N]: 4.22; DPSRLVNCLTGEGEDTRLSASEMK [L2P]: 5.35. The value for DESRLVNCLTGEGEDTRLSASEMK [L2E] was 5.67; that for DISRLVNCLTGEGEDTRLSASEMK [L2I] was 2.82.

For the variant DDSRLVNCLTGEGEDTRLSASEMK [L2D], the protein stability index is 4.32.

Consider DHSRLVNCLTGEGEDTRLSASEMK [L2H], for which the protein stability index came out at 5.29. Next, DQSRLVNCLTGEGEDTRLSASEMK [L2Q]: 4.6. Next, DFSRLVNCLTGEGEDTRLSASEMK [L2F]: 3.85.

Take DLSHLVNCLTGEGEDTRLSASEMK [R4H]: the protein stability index was 3.96. Turning to DLSCLVNCLTGEGEDTRLSASEMK [R4C], the protein stability index was found to be 3.65. Next, DLSYLVNCLTGEGEDTRLSASEMK [R4Y]: 2.85; DLSLLVNCLTGEGEDTRLSASEMK [R4L]: 3.47. The value for DLSWLVNCLTGEGEDTRLSASEMK [R4W] was 3.45. The value for DLSKLVNCLTGEGEDTRLSASEMK [R4K] was 3.12.

Consider DLSQLVNCLTGEGEDTRLSASEMK [R4Q], for which the protein stability index is 2.27.

With DLSTLVNCLTGEGEDTRLSASEMK [R4T], the protein stability index amounted to 4.46. The value for DLSVLVNCLTGEGEDTRLSASEMK [R4V] was 2.01.

With DLSALVNCLTGEGEDTRLSASEMK [R4A], the protein stability index came to 3.8.

In the case of DLSELVNCLTGEGEDTRLSASEMK [R4E], the protein stability index was 3.68.

DLSILVNCLTGEGEDTRLSASEMK [R4I]: the protein stability index was 2.48. The value for DLSMLVNCLTGEGEDTRLSASEMK [R4M] was 2.98. Next, DLSPLVNCLTGEGEDTRLSASEMK [R4P]: 3.66; DLSFLVNCLTGEGEDTRLSASEMK [R4F]: 3.88; DLSGLVNCLTGEGEDTRLSASEMK [R4G]: 3.8.

DLSNLVNCLTGEGEDTRLSASEMK [R4N]: the protein stability index amounted to 2.39. Next, SLSRLVNCLTGEGEDTRLSASEMK [D1S]: 2.8. Take YLSRLVNCLTGEGEDTRLSASEMK [D1Y]: the protein stability index is 2.43. Next, CLSRLVNCLTGEGEDTRLSASEMK [D1C]: 2.65; GLSRLVNCLTGEGEDTRLSASEMK [D1G]: 3.69; NLSRLVNCLTGEGEDTRLSASEMK [D1N]: 2.89. The value for VLSRLVNCLTGEGEDTRLSASEMK [D1V] was 1.95; that for RLSRLVNCLTGEGEDTRLSASEMK [D1R] was 3.68. The value for LLSRLVNCLTGEGEDTRLSASEMK [D1L] was 2.04; that for HLSRLVNCLTGEGEDTRLSASEMK [D1H] was 3.25; that for MLSRLVNCLTGEGEDTRLSASEMK [D1M] was 2.49. Take QLSRLVNCLTGEGEDTRLSASEMK [D1Q]: the protein stability index was found to be 3.56. As for FLSRLVNCLTGEGEDTRLSASEMK [D1F], the protein stability index came out at 2.77. The value for TLSRLVNCLTGEGEDTRLSASEMK [D1T] was 2.06; that for ILSRLVNCLTGEGEDTRLSASEMK [D1I] was 2.3. The value for ALSRLVNCLTGEGEDTRLSASEMK [D1A] was 2.84. As to PLSRLVNCLTGEGEDTRLSASEMK [D1P], the protein stability index was 4.33.

For the variant KLSRLVNCLTGEGEDTRLSASEMK [D1K], the protein stability index came out at 4.18. Take DLSRLVACLTGEGEDTRLSASEMK [N7A]: the protein stability index is 3.12. The value for DLSRLVICLTGEGEDTRLSASEMK [N7I] was 2.59; that for DLSRLVDCLTGEGEDTRLSASEMK [N7D] was 4.32. In the case of DLSRLVMCLTGEGEDTRLSASEMK [N7M], the protein stability index stood at 2.09. Next, DLSRLVLCLTGEGEDTRLSASEMK [N7L]: 3.85; DLSRLVTCLTGEGEDTRLSASEMK [N7T]: 2.62. The value for DLSRLVKCLTGEGEDTRLSASEMK [N7K] was 2.84; that for DLSRLVSCLTGEGEDTRLSASEMK [N7S] was 3.63. Next, DLSRLVECLTGEGEDTRLSASEMK [N7E]: 4; DLSRLVRCLTGEGEDTRLSASEMK [N7R]: 3.09. Turning to DLSRLVPCLTGEGEDTRLSASEMK [N7P], the protein stability index is 4.6. The value for DLSRLVGCLTGEGEDTRLSASEMK [N7G] was 2.74.
